US7067484 (Genentech, dated 2006)

Target: CD4-IgG (human, UniProt P01730 26-205)
Assay: immunoaffinity chromatography of BT20 conditioned medium on CD4-IgG-Protein A precolumn, SDS-PAGE with silver staining
Protocol: BT20 cells were grown to 80% confluence in 150 mm plates, harvested by 5 mM EDTA in PBS, and seeded into […] roller bottles with growth medium. After 1 week of growth the cells were nearly confluent. The growth medium was removed, the cells washed with PBS, and serum-free growth medium was added. After 5 days, conditioned medium was harvested (12 liters from 72 roller bottles), centrifuged, sterile filtered, concentrated in a 12 kD molecular weight cutoff Amicon filter, and stored at −70° C.
200 ml of BT20 conditioned media, concentrated as described above from 12 liters and frozen, was thawed, centrifuged at 17,000 rpm in a Sorvall SS34 rotor, and filtered through a 0.45 µm filter to clarify the solution. The 200 ml was pumped through a 2.0 ml CD4-IgG—Protein A (CD4-IgG covalently linked to Protein A through IgG moiety) immunoaffinity precolumn and a 1.0 ml REK7-IgG—Protein A (REK7-IgG covalently linked to Protein A through IgG moiety) immunoaffinity column in tandem with a flow rate of 0.5 ml/min. All chromatography was carried out at 4° C. […] The eluates were brought to pH 7.4 by the addition of 50 mM potassium phosphate, and an aliquot of each was analyzed by sodium dodecycl sulfate (SDS)—polyacrylamide gel electrophoresis (PAGE). […]

B1: AL-1 (REK7 ligand) purified from BT20 cell conditioned medium (ligand)
chain: QDPGSKAVADRYAVYWNSSNPRFQRGDYHIDVCINDYLDVFCPHYEDSVPEDKTERYVLYMVNFDGYSACDHTSKGFKRWECNRPHSPNGPLKFSEKFQLFTPFSLGFEFRPGREYFYISSAIPDNGRRSCLKLKVFVRPTNSCMKTIGVHDRVFDVNDKVENSLEPADDTVHESAEPSRGEN
notes: Soluble forms in serum-free conditioned medium of human BT20 cells; The 27,000 and 25,000 Dalton proteins appeared to be proteolytically processed forms of the 28,000 Dalton protein; also called 28,000, 27,000 and 25,000 Dalton proteins; BT20 cell-derived AL-1
binding result: no binding
